PMC11760825, “Prohibitin 1 tethers lipid membranes and regulates OPA1-mediated membrane fusion” (The Journal of Biological Chemistry, 2024)

Target: the molecule itself
Assay: cell-based or functional assay

B1: recombinant human prohibitin 1 (PHB1), C-terminally histidine-tagged, wild type (natural protein, UniProt P35232 1-272, looked up)
chain: MAAKVFESIGKFGLALAVAGGVVNSALYNVDAGHRAVIFDRFRGVQDIVVGEGTHFLIPWVQKPIIFDCRSRPRNVPVITGSKDLQNVNITLRILFRPVASQLPRIFTSIGEDYDERVLPSITTEILKSVVARFDAGELITQRELVSRQVSDDLTERAATFGLILDDVSLTHLTFGKEFTEAVEAKQVAQQEAERARFVVEKAEQQKKAAIISAEGDSKAAELIANSLATAGDGLIELRKLEAAEDIAYQLSRSRNITYLPAGQSVLLQLPQ
- OPA1-mediated liposome fusion (FRET lipid mixing; 0.5 μM L-OPA1 with 2 μM PHB1 against L-OPA1 alone; fusion activity from the first 2 min): ~3 fold
